Measured values taken from patent US5543498A, “Peptides to overcome inhibition of nerve growth” (The General Hospital Corporation, priority 1995, dated 1996).
Entries after “also recorded” stand apart in the source; their conditions may differ. No end group written: not given here.

Experiments:
Go = Go (Homo sapiens, UniProt P09471); test: GTPγ S binding to Go (nitrocellulose filtration assay); assay type: biochemical; details: for effect of mutant decapeptides on GTPγ S binding to Go: peptide 250 μM, binding without peptides = 100%; for effect on GTPγ S binding to Go, dose response: oxidized (performic acid) vs control peptide, same concentration range
Experimental: The GAP-43 1-10 peptide was oxidized using performic acid according to the procedures of A. Roher et al., Proc. Natl. Acad. Sci. USA 83:2662 (1986). Briefly, 10 mM peptide was incubated with formic acid solution containing 3% H2 O2 at 25° C. for one hour. The activation state of Go was determined in a nitrocellulose filtration assay as described by S. M. Strittmatter et al., Proc. Natl. Acad. Sci. USA 90:5327 (1993).
Both cysteine residues at positions 3 and 4 in the native GAP-43 1-10 peptide were replaced with methionine, tyrosine, aspartate, glutamate, lysine, arginine, serine, and tryptophan. These mutant peptides were tested for their ability to influence GTPγ S binding to Go.

[1] = system: Chick dorsal root ganglion (DRG) neurons; assay type: cell-based
Experimental: Chick DRGs from embryonic day 7 (E7) were explanted onto laminin-coated chamber slides in F12 medium with 10 ng/ml nerve growth factor and 10% fetal bovine serum. After 20 hours, peptide solutions or phosphate-buffered saline (PBS) in 1 mM DTT was added to the explants (225 μl) and the mixture incubated at 27° C. for one hour. BME, prepared following the procedure of J. A. Raper and J. P. Kapfhammer, Neuron 2:21 (1990), was added to the explants and incubated for 30 minutes. For each explant, all growth cones were scored as collapsed or fan-shaped (M. Igarashi et al., Science 259:77 (1993)).
In another series of experiments the GAP-43 1-10 peptide was added into the culture medium at 10^-8 M one hour prior to the addition of BME. After 30 minutes incubation with BME, the explant was fixed in glutaraldehyde and its growth cones were scored.
After exposing the PTX treated neurons to BME and the GAP-43 1-10, the amount of growth cone collapse was measured.
The procedure described in Example 2 was followed with the exception that one hour prior to the addition of BME (0.15 mg protein/ml) to the DRG culture medium, either the methionine or tyrosine mutant peptide was introduced at a concentration of 10^-4 M.

Sequence of Go (P09471 whole entry): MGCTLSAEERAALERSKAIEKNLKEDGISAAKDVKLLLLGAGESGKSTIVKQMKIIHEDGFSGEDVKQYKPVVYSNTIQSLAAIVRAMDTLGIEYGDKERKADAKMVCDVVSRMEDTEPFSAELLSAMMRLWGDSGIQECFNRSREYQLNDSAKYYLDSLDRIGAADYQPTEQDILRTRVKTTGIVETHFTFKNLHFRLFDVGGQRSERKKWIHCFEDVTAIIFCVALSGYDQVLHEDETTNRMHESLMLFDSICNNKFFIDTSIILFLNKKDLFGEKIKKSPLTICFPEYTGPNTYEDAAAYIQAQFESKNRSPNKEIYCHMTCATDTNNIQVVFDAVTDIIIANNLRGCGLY

## [3Y, 4Y]GAP43 (1-10) (MLYYMRRTKQ) [peptide-Y, GAP-43 1-10 peptide with both cysteines at positions 3 and 4 replaced with tyrosine]
Go
  effect of mutant decapeptides on GTPγ S binding to Go: attenuate GTPγ S binding to Go; also recorded: antagonist of G protein stimulation
Go; listed as tyrosine
  effect of mutant decapeptides on GTPγ S binding to Go: inhibits GTPγ S binding to Go
[1]; DRG, 10^-4 M peptide, relative to no peptide
  shift of BME dose response: BME needed to cause 50% collapse: about twice
[1]; DRG, BME 0.15 mg protein/ml, peptide 10^-4 M one hour before BME
  inhibition of growth cone collapse induced by BME: approximately 30%
[1]; doses used for the BME dose response (FIG. 3C)
  effect of the peptides by themselves on growth cones: do not have any evident effect by themselves

## oxidized GAP-43 1-10 peptide: GAP-43 1-10 peptide oxidized using performic acid (MLCCMRRTKQ; also: oxidized using performic acid)
Go; listed as Oxidation of the GAP-43 1-10 N terminus
  effect on GTPγ S binding to Go, dose response: dose-dependent inhibition
Go; listed as Oxidation of the GAP-43 1-10 N-terminus
  effect on GTPγ S binding to Go, dose response: dose-dependent inhibition
Go; listed as oxidation of the peptide by performic acid
  effect on GTPγ S binding to Go, dose response: inhibitory for Go

## pertussis toxin [PTX, reference compound]
[1]; PTX 20 ng/ml, BME 0.075 mg/ml
  effect on growth cone collapse induced by BME: do not inhibit the collapse induced by BME
[1]; PTX 20 ng/ml, BME 0.075 mg/ml plus 10^-8 M GAP-43 1-10 peptide, listed as pertussis toxin
  effect on GAP-43 1-10 peptide potentiation of BME-induced growth cone collapse: blocks
